Paper PMC9680610

Molecular target: angiotensin-converting enzyme-2 (ACE2) with the neck domain (UniProt Q9BYF1)
Assay: mass photometry; proteins measured alone, non-labelled, in solution; counts of monomer, dimer and trimer species; ACE2 at 10 nM

angiotensin-converting enzyme-2 (ACE2) with the neck domain (from UniProt Q9BYF1 18-740) (receptor)
stoichiometry N: 2
